We go through 15 molecules from US20260201008A1, “SECRETIN-DERIVED GLP1R SELECTIVE AGONISTS” (GUBRA A/S, priority 2023, published 2026).

Numbered stars: 1 amine (or outer) side, 2 acyl side, 3 side chain; on linkers, the order of the positions; unused ones are H or OH. Square brackets hold non-standard residues; d marks the D form. Side chains are listed from the residue outwards. Ends that are not written are not given here. * marks the point of attachment. C20 diacid = O=C(O)CCCCCCCCCCCCCCCCCCC(=O)*; γGlu = O=C(O)[C@H](CCC(=O)[*:2])N[*:1]; AEEA = NCCOCCOCC(=O)O; Aib = CC(C)(N)C(=O)O

In the first assay the target is human secretin receptor (hSCTR) (human, UniProt P47872 23-440). Nature of the assay: cell-based or functional assay.
human secretin receptor (hSCTR), sequence (P47872 23-440): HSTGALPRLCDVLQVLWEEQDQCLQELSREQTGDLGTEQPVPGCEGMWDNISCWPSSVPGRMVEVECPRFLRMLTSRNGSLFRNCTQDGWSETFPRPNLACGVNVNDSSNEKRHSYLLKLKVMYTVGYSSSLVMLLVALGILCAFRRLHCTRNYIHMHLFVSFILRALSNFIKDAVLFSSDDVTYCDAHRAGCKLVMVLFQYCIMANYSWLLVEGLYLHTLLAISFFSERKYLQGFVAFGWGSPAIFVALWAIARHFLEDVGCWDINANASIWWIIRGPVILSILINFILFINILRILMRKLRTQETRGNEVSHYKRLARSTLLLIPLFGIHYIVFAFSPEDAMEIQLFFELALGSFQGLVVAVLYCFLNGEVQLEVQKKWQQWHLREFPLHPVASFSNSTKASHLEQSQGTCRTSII
For the molecule H[Aib]EGTFTSDVSRLK([AEEA-AEEA-γGlu-C20 diacid])E[Aib]AASQRFLEHLV-NH2 [SEQ ID NO: 59], the “pEC50 hSCTR” value is 6.9 -log M.
On to H[Aib]EGTFTSDVSRLK([AEEA-AEEA-γGlu-C20 diacid])EEAA[Aib]QRFLEHLV-NH2 (also: K14 lipid also given as C18DA[γE][OEG][OEG]-) [SEQ ID NO: 1], for which the “pEC50 hSCTR” value was 6.8 -log M.
H[Aib]EGTFTSDVSYLK([AEEA-AEEA-γGlu-C20 diacid])ETAAQQRFLEHLV-NH2 [SEQ ID NO: 58]: the “pEC50 hSCTR” value was 6 -log M.
For H[Aib]EGTFTSDVSVLK([AEEA-AEEA-γGlu-C20 diacid])EEAATQRFLEHLV-NH2 [SEQ ID NO: 53], the “pEC50 hSCTR” value was 7.2 -log M.
Turning to H[Aib]EGTFTSDVSELK([AEEA-AEEA-γGlu-C20 diacid])ETAATQRFLEHLV-NH2 [SEQ ID NO: 54], the “pEC50 hSCTR” value was 6.9 -log M.
In the case of H[Aib]EGTFTSDVSRLK([AEEA-AEEA-γGlu-C20 diacid])EFAASQRFLEHLV-NH2 [SEQ ID NO: 52], the “pEC50 hSCTR” value is 6.4 -log M.
As to H[Aib]EGTFTSDVSYLK([AEEA-AEEA-γGlu-C20 diacid])EEAAAQRFLEHLV-NH2 [SEQ ID NO: 61], the “pEC50 hSCTR” value is 6.1 -log M.
As to H[Aib]EGTFTSDVSELK([AEEA-AEEA-γGlu-C20 diacid])E[Aib]AAQQRFLEHLV-NH2 [SEQ ID NO: 5], the “pEC50 hSCTR” value was 7.1 -log M.
The same measure, in the same setting: then H[Aib]EGTFTSDVSRLK([AEEA-AEEA-γGlu-C20 diacid])EEAAAQRFLEHLV-NH2 [SEQ ID NO: 60], with 6.6 -log M; and H[Aib]EGTFTSDVSRLK([AEEA-AEEA-γGlu-C20 diacid])E[Aib]AATQRFLEHLV-NH2 [SEQ ID NO: 50], with 7.3 -log M; and H[Aib]EGTFTSDVSTLK([AEEA-AEEA-γGlu-C20 diacid])EEAASQRFLEHLV-NH2 [SEQ ID NO: 6], with 6.5 -log M.
H[Aib]EGTFTSDVSFLK([AEEA-AEEA-γGlu-C20 diacid])EEAAEQRFLEHLV-NH2 [SEQ ID NO: 56]: the “pEC50 hSCTR” value was 5.1 -log M.
Take H[Aib]EGTFTSDVSELK([AEEA-AEEA-γGlu-C20 diacid])EEAAEQRFLEHLV-NH2 [SEQ ID NO: 51]: the “pEC50 hSCTR” value was 5.7 -log M.
For H[Aib]EGTFTSDVSELK([AEEA-AEEA-γGlu-C20 diacid])ETAAAQRFLEHLV-NH2 [SEQ ID NO: 57], the “pEC50 hSCTR” value was 5.3 -log M.
H[Aib]EGTFTSDVSELK([AEEA-AEEA-γGlu-C20 diacid])EEAATQRFLEHLV-NH2 [SEQ ID NO: 55]: the “pEC50 hSCTR” value was 6.8 -log M.

For another assay, the target named is human GLP-1 receptor (hGLP1R) (human, UniProt P43220 24-463). The assay is described as follows: cell-based or functional assay.
On to H[Aib]EGTFTSDVSRLK([AEEA-AEEA-γGlu-C20 diacid])E[Aib]AASQRFLEHLV-NH2 [SEQ ID NO: 59], for which the “pEC50 hGLPR1” value was 10.5 -log M.
Turning to H[Aib]EGTFTSDVSRLK([AEEA-AEEA-γGlu-C20 diacid])EEAA[Aib]QRFLEHLV-NH2 (also: K14 lipid also given as C18DA[γE][OEG][OEG]-) [SEQ ID NO: 1], the “pEC50 hGLPR1” value is 10.4 -log M.
On to H[Aib]EGTFTSDVSYLK([AEEA-AEEA-γGlu-C20 diacid])ETAAQQRFLEHLV-NH2 [SEQ ID NO: 58], for which the “pEC50 hGLPR1” value was 10.6 -log M.
With H[Aib]EGTFTSDVSVLK([AEEA-AEEA-γGlu-C20 diacid])EEAATQRFLEHLV-NH2 [SEQ ID NO: 53], the “pEC50 hGLPR1” value was 11.3 -log M.
On the same count and under the same terms, the value for H[Aib]EGTFTSDVSELK([AEEA-AEEA-γGlu-C20 diacid])ETAATQRFLEHLV-NH2 [SEQ ID NO: 54] was 10.9 -log M; that for H[Aib]EGTFTSDVSRLK([AEEA-AEEA-γGlu-C20 diacid])EFAASQRFLEHLV-NH2 [SEQ ID NO: 52] was 9.9 -log M.
Regarding H[Aib]EGTFTSDVSYLK([AEEA-AEEA-γGlu-C20 diacid])EEAAAQRFLEHLV-NH2 [SEQ ID NO: 61], the “pEC50 hGLPR1” value was 10.9 -log M.
On to H[Aib]EGTFTSDVSELK([AEEA-AEEA-γGlu-C20 diacid])E[Aib]AAQQRFLEHLV-NH2 [SEQ ID NO: 5], for which the “pEC50 hGLPR1” value is 10.9 -log M.
On to H[Aib]EGTFTSDVSRLK([AEEA-AEEA-γGlu-C20 diacid])EEAAAQRFLEHLV-NH2 [SEQ ID NO: 60], for which the “pEC50 hGLPR1” value was 10.5 -log M.
On to H[Aib]EGTFTSDVSRLK([AEEA-AEEA-γGlu-C20 diacid])E[Aib]AATQRFLEHLV-NH2 [SEQ ID NO: 50], for which the “pEC50 hGLPR1” value is 10.8 -log M.
With H[Aib]EGTFTSDVSTLK([AEEA-AEEA-γGlu-C20 diacid])EEAASQRFLEHLV-NH2 [SEQ ID NO: 6], the “pEC50 hGLPR1” value was 10.5 -log M.
On to H[Aib]EGTFTSDVSFLK([AEEA-AEEA-γGlu-C20 diacid])EEAAEQRFLEHLV-NH2 [SEQ ID NO: 56], for which the “pEC50 hGLPR1” value is 10.4 -log M.
In the case of H[Aib]EGTFTSDVSELK([AEEA-AEEA-γGlu-C20 diacid])EEAAEQRFLEHLV-NH2 [SEQ ID NO: 51], the “pEC50 hGLPR1” value was 10.5 -log M.
Take H[Aib]EGTFTSDVSELK([AEEA-AEEA-γGlu-C20 diacid])ETAAAQRFLEHLV-NH2 [SEQ ID NO: 57]: the “pEC50 hGLPR1” value was 10.6 -log M.
The same measure, in the same setting: the value for H[Aib]EGTFTSDVSELK([AEEA-AEEA-γGlu-C20 diacid])EEAATQRFLEHLV-NH2 [SEQ ID NO: 55] was 11 -log M.
